Laboratory results taken from patent publication US20200262877A1, “ION CHANNEL-BINDING PEPTIDES AND METHODS OF USE THEREOF” (priority 2017, published 2020).

What was measured:
[1] = biological target: T1, 5HT3a (Homo sapiens, UniProt P46098); experiment: Ion channel panel (IonWorks Barracuda): 5HT3a; format: cell-based
T1 construct: host or cells: HEK293 or CHO
T1 sequence (P46098 whole entry, looked up): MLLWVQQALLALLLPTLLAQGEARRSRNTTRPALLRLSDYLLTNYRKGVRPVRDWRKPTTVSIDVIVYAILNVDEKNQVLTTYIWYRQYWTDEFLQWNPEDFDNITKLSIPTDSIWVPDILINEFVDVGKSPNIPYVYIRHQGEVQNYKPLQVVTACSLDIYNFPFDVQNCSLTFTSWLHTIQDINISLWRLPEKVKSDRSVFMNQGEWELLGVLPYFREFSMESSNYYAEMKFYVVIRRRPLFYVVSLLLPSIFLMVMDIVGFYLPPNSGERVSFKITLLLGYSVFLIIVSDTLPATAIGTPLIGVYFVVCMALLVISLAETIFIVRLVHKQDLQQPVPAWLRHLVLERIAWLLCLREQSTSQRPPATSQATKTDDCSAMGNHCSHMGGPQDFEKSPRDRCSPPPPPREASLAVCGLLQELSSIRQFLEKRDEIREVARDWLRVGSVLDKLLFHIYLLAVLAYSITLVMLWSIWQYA
Experimental: (§1) This example describes a method for assaying ion channel activity in cells.
(§2) Peptides were screened in duplicate at final concentrations of 20 μM and 200 nM, as determined by amino acid analysis, and diluted into HEPES buffered physiological saline (HBPS). HEK293 or CHO cells from the American Type Culture Collection (ATCC) were transfected with the appropriate ion channel before use. HEK293 cells were grown in Dulbecco's Modified Eagle Medium/Nutrient Mixture F-12, and CHO cells were cultured in Ham's F-12 media. All cultures were supplemented with 10% fetal bovine serum, 100 U/ml penicillin G, 100 μg/ml streptomycin sulfate, and the appropriate selection antibiotics. Prior to use, cells were washed twice with Hank's Balanced Salt Solution, and treated with Accutase cell detachment solution (Sigma-Aldrich). Cells were then washed. Peptides and controls were incubated with cells for at least five minutes.
(§3) Percent inhibition was defined as: (1-(Ipeptide/Icontrol))×100%).
(§4) Percent values were calculated using the following formula: % activation=(IPeptide/Icontrol)×100%, where IPeptide is the current produced by co-application a peptide with agonist, and Icontrol refers to the current produced by stimulation in control. Control used for each ion channel is the reference compound matched to a particular channel, as illustrated in TABLE 10 below.

[2] = biological target: hERG (Homo sapiens, UniProt Q12809); experiment: in vitro; details: 100% = no change, <100% = inhibition
Experimental: as §1, §2, §3, §4

[3] = biological target: Nav1.5 (Homo sapiens, UniProt Q14524); experiment: in vitro; details: 100% = no change; for Activity of Nav1.5 with peptide, expressed as a percentage of the reference compound: peptide at 0.2 μM; for Activity of Nav1.5 with peptide (percentage of the reference compound): peptide at 20 μM
Chain of Nav1.5 (Q14524 whole entry): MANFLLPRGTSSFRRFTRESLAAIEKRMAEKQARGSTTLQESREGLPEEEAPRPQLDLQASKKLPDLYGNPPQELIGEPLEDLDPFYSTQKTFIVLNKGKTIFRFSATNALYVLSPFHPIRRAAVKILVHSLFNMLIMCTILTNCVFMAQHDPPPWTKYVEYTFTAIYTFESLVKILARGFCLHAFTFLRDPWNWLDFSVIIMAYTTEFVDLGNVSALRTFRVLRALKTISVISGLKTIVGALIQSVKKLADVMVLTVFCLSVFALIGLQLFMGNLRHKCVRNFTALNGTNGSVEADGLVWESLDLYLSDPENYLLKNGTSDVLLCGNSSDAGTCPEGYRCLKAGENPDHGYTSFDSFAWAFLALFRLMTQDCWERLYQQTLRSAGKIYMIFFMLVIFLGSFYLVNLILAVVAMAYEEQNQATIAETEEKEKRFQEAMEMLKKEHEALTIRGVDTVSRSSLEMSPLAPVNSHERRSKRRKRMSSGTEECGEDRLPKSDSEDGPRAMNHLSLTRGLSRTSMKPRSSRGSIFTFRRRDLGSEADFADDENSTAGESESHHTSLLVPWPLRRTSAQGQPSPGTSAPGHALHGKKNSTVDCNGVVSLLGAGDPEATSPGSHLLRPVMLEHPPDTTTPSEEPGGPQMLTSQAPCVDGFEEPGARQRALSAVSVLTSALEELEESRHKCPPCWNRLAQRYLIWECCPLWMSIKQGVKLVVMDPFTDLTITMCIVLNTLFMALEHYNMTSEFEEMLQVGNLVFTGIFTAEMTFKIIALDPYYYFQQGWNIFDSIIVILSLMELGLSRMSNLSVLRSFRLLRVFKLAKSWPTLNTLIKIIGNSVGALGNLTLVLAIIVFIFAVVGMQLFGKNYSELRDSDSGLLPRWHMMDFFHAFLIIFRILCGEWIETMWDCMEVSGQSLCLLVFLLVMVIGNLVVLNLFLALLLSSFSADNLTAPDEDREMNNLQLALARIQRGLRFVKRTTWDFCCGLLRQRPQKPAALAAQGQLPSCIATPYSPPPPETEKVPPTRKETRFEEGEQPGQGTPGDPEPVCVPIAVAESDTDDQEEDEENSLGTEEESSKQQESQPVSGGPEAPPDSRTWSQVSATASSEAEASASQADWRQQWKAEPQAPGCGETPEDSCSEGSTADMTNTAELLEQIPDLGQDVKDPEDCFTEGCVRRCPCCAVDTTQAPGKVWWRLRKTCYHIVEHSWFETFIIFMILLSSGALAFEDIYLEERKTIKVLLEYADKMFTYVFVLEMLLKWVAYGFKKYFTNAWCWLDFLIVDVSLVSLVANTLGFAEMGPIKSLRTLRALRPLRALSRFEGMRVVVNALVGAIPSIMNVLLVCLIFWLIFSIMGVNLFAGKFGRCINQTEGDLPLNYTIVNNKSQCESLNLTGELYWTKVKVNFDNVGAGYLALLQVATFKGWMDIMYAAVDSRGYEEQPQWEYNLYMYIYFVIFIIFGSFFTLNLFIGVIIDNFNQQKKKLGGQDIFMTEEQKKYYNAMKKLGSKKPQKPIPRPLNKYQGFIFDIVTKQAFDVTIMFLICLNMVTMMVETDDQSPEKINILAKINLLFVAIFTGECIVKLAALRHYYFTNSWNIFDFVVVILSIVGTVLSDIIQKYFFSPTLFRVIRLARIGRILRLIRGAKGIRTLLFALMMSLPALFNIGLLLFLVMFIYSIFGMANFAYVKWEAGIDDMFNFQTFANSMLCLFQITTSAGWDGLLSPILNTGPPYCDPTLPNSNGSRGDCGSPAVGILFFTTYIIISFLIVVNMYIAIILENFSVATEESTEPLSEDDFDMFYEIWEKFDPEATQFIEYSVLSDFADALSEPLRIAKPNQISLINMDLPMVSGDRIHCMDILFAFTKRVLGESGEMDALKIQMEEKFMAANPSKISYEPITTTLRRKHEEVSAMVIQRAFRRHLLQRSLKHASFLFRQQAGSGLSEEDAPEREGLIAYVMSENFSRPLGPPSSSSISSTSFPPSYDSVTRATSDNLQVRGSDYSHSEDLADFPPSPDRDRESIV
Experimental: as §1, §2, §3, §4

[4] = biological target: T2, TRPV1 (Homo sapiens, UniProt Q8NER1); experiment: Ion channel panel (IonWorks Barracuda): TRPV1; format: cell-based; details: 100% = no change, <100% = inhibition
T2 construct: host or cells: HEK293 or CHO
Experimental: as §1, §2, §3, §4

[5] = biological target: T3, α3β4 (Homo sapiens, UniProt P30926+P32297); experiment: Ion channel panel (IonWorks Barracuda): α3β4; format: cell-based; details: 100% = no change, <100% = inhibition
T3 construct: host or cells: HEK293 or CHO
Experimental: as §1, §2, §3, §4

[6] = biological target: T4, NR2A (Homo sapiens, UniProt Q12879); experiment: Ion channel panel (IonWorks Barracuda): NR2A; format: cell-based; details: 100% = no change, <100% = inhibition
T4 construct: host or cells: HEK293 or CHO
Experimental: as §1, §2, §3, §4

[7] = biological target: T5, Kv1.3 (Homo sapiens, UniProt P22001); experiment: cell-based; format: cell-based; details: 100% = no change, <100% = inhibition
T5 construct: host or cells: HEK293 or CHO
T5 sequence (P22001 whole entry): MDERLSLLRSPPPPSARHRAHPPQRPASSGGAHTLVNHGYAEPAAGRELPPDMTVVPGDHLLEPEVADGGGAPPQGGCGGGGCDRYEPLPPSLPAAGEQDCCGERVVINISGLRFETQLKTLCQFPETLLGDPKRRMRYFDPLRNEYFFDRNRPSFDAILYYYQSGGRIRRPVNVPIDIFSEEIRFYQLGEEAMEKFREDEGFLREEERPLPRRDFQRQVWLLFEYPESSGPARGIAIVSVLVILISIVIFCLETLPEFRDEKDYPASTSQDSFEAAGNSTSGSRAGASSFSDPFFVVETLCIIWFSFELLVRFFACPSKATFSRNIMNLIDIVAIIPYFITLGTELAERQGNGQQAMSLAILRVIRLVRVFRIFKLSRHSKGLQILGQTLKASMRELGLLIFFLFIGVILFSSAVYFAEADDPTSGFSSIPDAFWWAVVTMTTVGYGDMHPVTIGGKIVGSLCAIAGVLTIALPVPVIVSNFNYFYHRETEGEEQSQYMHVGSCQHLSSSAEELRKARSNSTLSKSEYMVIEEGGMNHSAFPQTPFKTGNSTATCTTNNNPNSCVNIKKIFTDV
Experimental: as §1, §2, §3, §4

[8] = biological target: T6, Kv1.2 (Homo sapiens, UniProt P16389); experiment: cell-based; format: cell-based; details: 100% = no change, <100% = inhibition
T6 construct: host or cells: HEK293 or CHO
Experimental: as §1, §2, §3, §4

[9] = biological target: T7, Kv1.1 (Homo sapiens, UniProt Q09470); experiment: cell-based; format: cell-based; details: 100% = no change, <100% = inhibition
T7 construct: host or cells: HEK293 or CHO
Experimental: as §1, §2, §3, §4

[10] = system: GABA; experiment: Ion channel panel (IonWorks Barracuda): GABA; format: cell-based; details: 100% = no change, <100% = inhibition
Experimental: as §1, §2, §3, §4

[11] = biological target: T8, TRPA1 (Homo sapiens, UniProt O75762); experiment: Ion channel panel (IonWorks Barracuda): TRPA1; format: cell-based; details: 100% = no change, <100% = inhibition
T8 construct: host or cells: HEK293 or CHO
Experimental: as §1, §2, §3, §4

[12] = biological target: T9, NR2B (Homo sapiens, UniProt Q13224); experiment: Ion channel panel (IonWorks Barracuda): NR2B; format: cell-based; details: 100% = no change, <100% = inhibition
T9 construct: host or cells: HEK293 or CHO
Experimental: as §1, §2, §3, §4

[13] = biological target: T10, Nav1.7 (Homo sapiens, UniProt Q15858); experiment: cell-based; format: cell-based; details: 100% = no change; for Activity of Nav1.7 with peptide, expressed as a percentage of the reference compound: peptide at 0.2 μM; for Activity of Nav1.7 with peptide (percentage of the reference compound): peptide at 20 μM
T10 construct: host or cells: HEK293 or CHO
T10 sequence (Q15858 whole entry): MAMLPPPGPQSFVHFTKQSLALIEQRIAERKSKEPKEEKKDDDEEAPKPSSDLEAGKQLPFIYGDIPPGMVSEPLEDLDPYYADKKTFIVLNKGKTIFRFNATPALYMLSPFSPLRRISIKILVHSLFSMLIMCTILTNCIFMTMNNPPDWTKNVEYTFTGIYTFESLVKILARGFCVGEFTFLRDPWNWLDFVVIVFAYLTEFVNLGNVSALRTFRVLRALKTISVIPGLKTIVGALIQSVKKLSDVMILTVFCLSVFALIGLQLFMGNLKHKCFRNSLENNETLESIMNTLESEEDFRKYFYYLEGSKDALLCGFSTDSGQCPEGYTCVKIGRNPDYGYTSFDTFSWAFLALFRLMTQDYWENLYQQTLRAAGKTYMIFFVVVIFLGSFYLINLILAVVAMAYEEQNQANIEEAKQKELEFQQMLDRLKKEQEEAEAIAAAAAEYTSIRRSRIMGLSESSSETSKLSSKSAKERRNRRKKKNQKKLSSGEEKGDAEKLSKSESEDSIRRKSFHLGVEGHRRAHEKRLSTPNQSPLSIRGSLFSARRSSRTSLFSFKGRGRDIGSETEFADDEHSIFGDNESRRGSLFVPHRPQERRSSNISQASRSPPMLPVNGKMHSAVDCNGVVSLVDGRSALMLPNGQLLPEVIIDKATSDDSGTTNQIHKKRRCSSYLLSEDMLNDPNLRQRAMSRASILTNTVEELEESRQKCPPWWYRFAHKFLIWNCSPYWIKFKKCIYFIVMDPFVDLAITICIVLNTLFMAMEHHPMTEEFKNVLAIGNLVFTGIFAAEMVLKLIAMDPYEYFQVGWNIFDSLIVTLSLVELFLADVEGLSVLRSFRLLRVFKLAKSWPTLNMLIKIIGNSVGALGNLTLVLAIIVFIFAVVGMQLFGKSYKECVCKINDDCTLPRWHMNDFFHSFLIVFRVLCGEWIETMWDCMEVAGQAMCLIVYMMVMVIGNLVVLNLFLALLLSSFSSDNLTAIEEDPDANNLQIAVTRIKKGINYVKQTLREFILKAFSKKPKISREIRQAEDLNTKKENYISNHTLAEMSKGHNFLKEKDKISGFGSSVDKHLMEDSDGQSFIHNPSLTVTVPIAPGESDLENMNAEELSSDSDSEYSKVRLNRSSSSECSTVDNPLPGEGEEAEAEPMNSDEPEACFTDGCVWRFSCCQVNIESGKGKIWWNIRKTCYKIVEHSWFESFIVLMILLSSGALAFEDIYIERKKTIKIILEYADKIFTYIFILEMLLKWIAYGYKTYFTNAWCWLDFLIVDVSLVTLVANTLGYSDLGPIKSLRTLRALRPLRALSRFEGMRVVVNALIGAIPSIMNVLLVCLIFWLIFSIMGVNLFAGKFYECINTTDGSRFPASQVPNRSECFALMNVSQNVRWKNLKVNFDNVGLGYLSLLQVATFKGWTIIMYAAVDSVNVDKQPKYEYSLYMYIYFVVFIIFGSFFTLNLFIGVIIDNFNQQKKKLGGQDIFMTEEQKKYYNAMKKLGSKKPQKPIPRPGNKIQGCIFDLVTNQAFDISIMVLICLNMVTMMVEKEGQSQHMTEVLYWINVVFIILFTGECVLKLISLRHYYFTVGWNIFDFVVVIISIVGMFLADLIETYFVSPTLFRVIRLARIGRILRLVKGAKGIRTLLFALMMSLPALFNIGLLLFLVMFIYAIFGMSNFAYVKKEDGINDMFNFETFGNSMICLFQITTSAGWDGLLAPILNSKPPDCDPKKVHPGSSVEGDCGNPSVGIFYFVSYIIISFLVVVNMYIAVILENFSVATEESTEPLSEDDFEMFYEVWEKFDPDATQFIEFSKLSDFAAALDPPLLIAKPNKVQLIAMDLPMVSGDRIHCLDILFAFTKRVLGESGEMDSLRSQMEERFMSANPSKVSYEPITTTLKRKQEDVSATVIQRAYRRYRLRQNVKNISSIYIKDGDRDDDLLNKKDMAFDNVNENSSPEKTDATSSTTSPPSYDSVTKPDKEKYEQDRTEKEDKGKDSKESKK
Experimental: as §1
as §2, with “Peptides were screened in duplicate at final concentrations of 20 μM and 200 nM, as determined by amino acid analysis, and diluted into HEPES buffered physiological saline (HBPS).” left out
as §3, §4

[14] = biological target: T11, Cav2.2 (Homo sapiens, UniProt Q00975); experiment: cell-based; details: 100% = no change, <100% = inhibition
T11 construct: host or cells: HEK293 or CHO
Experimental: as §1, §2, §3, §4

[15] = biological target: T12, Cav2.1 (Homo sapiens, UniProt O00555); experiment: cell-based; details: 100% = no change, <100% = inhibition
T12 construct: host or cells: HEK293 or CHO
Experimental: as §1, §2, §3, §4

[16] = biological target: T13, Kv2.1 (Homo sapiens, UniProt Q14721); experiment: cell-based; details: 100% = no change, <100% = inhibition
T13 construct: host or cells: HEK293 or CHO
Experimental: as §1, §2, §3, §4

[17] = biological target: T14, α4β2 (Homo sapiens, UniProt P17787+P43681); experiment: Ion channel panel (IonWorks Barracuda): α4β2; format: cell-based; details: 100% = no change, <100% = inhibition
T14 construct: host or cells: HEK293 or CHO
Experimental: as §1, §2, §3, §4

[18] = biological target: T15, Kir2.1 (Homo sapiens, UniProt P63252); experiment: Ion channel panel (IonWorks Barracuda): Kir2.1; format: cell-based; details: 100% = no change, <100% = inhibition
T15 construct: host or cells: HEK293 or CHO
T15 sequence (P63252 whole entry): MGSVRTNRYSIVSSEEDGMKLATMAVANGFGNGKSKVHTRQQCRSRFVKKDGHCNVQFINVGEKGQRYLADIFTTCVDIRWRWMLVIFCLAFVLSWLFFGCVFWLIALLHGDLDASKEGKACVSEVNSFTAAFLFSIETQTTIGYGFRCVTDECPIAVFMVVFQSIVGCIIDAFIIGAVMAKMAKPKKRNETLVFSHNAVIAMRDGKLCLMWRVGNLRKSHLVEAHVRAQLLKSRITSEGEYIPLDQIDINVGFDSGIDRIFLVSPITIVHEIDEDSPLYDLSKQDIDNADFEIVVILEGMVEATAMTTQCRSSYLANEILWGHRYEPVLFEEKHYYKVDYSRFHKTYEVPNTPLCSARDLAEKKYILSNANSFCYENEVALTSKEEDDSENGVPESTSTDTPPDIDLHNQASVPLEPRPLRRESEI
Experimental: as §1, §2, §3, §4

[19] = first of two Nav1.5 columns (probably TP1)
[20] = second of two Nav1.5 columns (probably TP2)
[21] = first of two Nav1.7 columns (probably TP1)
[22] = second of two Nav1.7 columns (probably TP2)

14 (GSDRDSCIDKSRCSKYGYYQECQDCCKKAGHNGGTCMFFKCKCA) [compound 14]
Activity of 5HT3a with peptide (percentage of the reference compound) [1]: 78% | Activity of 5HT3a with peptide, expressed as a percentage of the reference compound [1]: 96% | Activity of hERG with peptide, expressed as a percentage of the reference compound ([2]; peptide at 0.2 μM): 82% | Activity of hERG with peptide (percentage of the reference compound) ([2]; peptide at 20 μM): 1% | Activity of Nav1.5 with peptide, expressed as a percentage of the reference compound [3, 19]: 85% | Activity of Nav1.5 with peptide, expressed as a percentage of the reference compound [3, 20]: 82% | Activity of Nav1.5 with peptide (percentage of the reference compound) [3, 19]: 94% | Activity of Nav1.5 with peptide (percentage of the reference compound) [3, 20]: 97% | Activity of TRPV1 with peptide, expressed as a percentage of the reference compound ([4]; peptide at 0.2 μM): 133% | Activity of TRPV1 with peptide (percentage of the reference compound) ([4]; peptide at 20 μM): 92% | Activity of a3b4 with peptide, expressed as a percentage of the reference compound ([5]; peptide at 0.2 μM): 99% | Activity of a3b4 with peptide (percentage of the reference compound) ([5]; peptide at 20 μM): 93% | Activity of NR2A with peptide, expressed as a percentage of the reference compound ([6]; peptide at 0.2 μM): 107% | Activity of NR2A with peptide (percentage of the reference compound) ([6]; peptide at 20 μM): 95% | Activity of Kv1.3 with peptide, expressed as a percentage of the reference compound ([7]; peptide at 0.2 μM): 87% | Activity of Kv1.3 with peptide (percentage of the reference compound) ([7]; peptide at 20 μM): 82% | Activity of Kv1.2 with peptide, expressed as a percentage of the reference compound ([8]; peptide at 0.2 μM): 73% | Activity of Kv1.2 with peptide (percentage of the reference compound) ([8]; peptide at 20 μM): 34% | Activity of Kv1.1 with peptide, expressed as a percentage of the reference compound ([9]; peptide at 0.2 μM): 79% | Activity of Kv1.1 with peptide (percentage of the reference compound) ([9]; peptide at 20 μM): 99% | Activity of GABA with peptide, expressed as a percentage of the reference compound ([10]; peptide at 0.2 μM): 107% | Activity of GABA with peptide (percentage of the reference compound) ([10]; peptide at 20 μM): 120% | Activity of TRPA1 with peptide, expressed as a percentage of the reference compound ([11]; peptide at 0.2 μM): 106% | Activity of TRPA1 with peptide (percentage of the reference compound) ([11]; peptide at 20 μM): 66% | Activity of NR2B with peptide, expressed as a percentage of the reference compound ([12]; peptide at 0.2 μM): 123% | Activity of NR2B with peptide (percentage of the reference compound) ([12]; peptide at 20 μM): 72% | Activity of Nav1.7 with peptide, expressed as a percentage of the reference compound [13, 21]: 83% | Activity of Nav1.7 with peptide, expressed as a percentage of the reference compound [13, 22]: 89% | Activity of Nav1.7 with peptide (percentage of the reference compound) [13, 21]: 72% | Activity of Nav1.7 with peptide (percentage of the reference compound) [13, 22]: 65% | Activity of Cav2.2 with peptide, expressed as a percentage of the reference compound ([14]; peptide at 0.2 μM): 129% | Activity of Cav2.2 with peptide (percentage of the reference compound) ([14]; peptide at 20 μM): 95% | Activity of Cav2.1 with peptide, expressed as a percentage of the reference compound ([15]; peptide at 0.2 μM): 118% | Activity of Cav2.1 with peptide (percentage of the reference compound) ([15]; peptide at 20 μM): 111% | Activity of Kv2.1 with peptide, expressed as a percentage of the reference compound ([16]; peptide at 0.2 μM): 109% | Activity of Kv2.1 with peptide (percentage of the reference compound) ([16]; peptide at 20 μM): 93% | Activity of a4b2 with peptide, expressed as a percentage of the reference compound ([17]; peptide at 0.2 μM): 106% | Activity of a4b2 with peptide (percentage of the reference compound) ([17]; peptide at 20 μM): 81% | Activity of Kir2.1 with peptide, expressed as a percentage of the reference compound ([18]; peptide at 0.2 μM): 95% | Activity of Kir2.1 with peptide (percentage of the reference compound) ([18]; peptide at 20 μM): 79%
